According to the DeepSol protein solubility set:

experiment: soluble on expression in E. coli; label from the status in PepcDB or PDB records

Sequence	soluble on expression in E. coli
MFNKAIVIGGSMAGKFAAKALSTSFKEVIIIEASERWDGKSSRKRVPQSNHPHVLLKGGENAIEELFPNITDELIEAGSIVNNFTRDLKWHQFGLWKQPFIGEVHMIQQSRPLLEWNIQKRIHQISNITIKYETLVKGLLVDEKLNKVCGVKVKYLETDAQEEVHADLVVDASGFGSKSIEWLREYEIEVQEEKVRINLFYATKMFKLKENEELDCCNMLMSPSFPDNPYGVLIQTIEDNRYFVTFSGYANEKAPQTDDEFYDFAENLSISNVTDFLNKAVAISDIKTYKIPYQVRRRFDLTTNMPEGLLVVGDAHCRFDPVFGQGVSVAAMEARQLQLLLQGRKQLDKTFTQQFYKKAATIIETPWEMTTTEISRHPQLKRELTIKQKFQLWYTKQIYQLSATDSDVYIRLVKVMNLIRSPFHLFHPKVLLAVLLKRKKLEHHHHHH	not soluble
DQVGIWGNSPTAHRGLAVAARHAAPLLRVEDAFLRSLFPGRAGEPPLGLLLDRAGVHFDPTTPSDLEQLLTSAPLDDTTLLNRARDAMARIRENHLSKYCATDPDLPLPEPGYVLVIDQTRGDASVTASGGNDALFREMLVFAQEEHPGARVLIKTHPETAAGFRPGYYGERDISVRVSLYDAPLSPWALLDGAVGVYTLSSQLGFEAILAGHKPRVFGQPFYAGWGLTLDEHPVPRRERRLTRAQLFAAAMILYPTW	not soluble
MKAPVRVAVTGAAGQIGYSLLFRIAAGEMLGKDQPVILQLLEIPQAMKALEGVVMELEDCAFPLLAGLEATDDPKVAFKDADYALLVGAAPRKAGMERRDLLQVNGKIFTEQGRALAEVAKKDVKVLVVGNPANTNALIAYKNAPGLNPRNFTAMTRLDHNRAKAQLAKKTGTGVDRIRRMTVWGNHSSTMFPDLFHAEVDGRPALELVDMEWYEKVFIPTVAQRGAAIIQARGASSAASAANAAIEHIRDWALGTPEGDWVSMAVPSQGEYGIPEGIVYSFPVTAKDGAYRVVEGLEINEFARKRMEITAQELLDEMEQVKALGLI	soluble
MVRDMKHTVEVMIPEAEIKARIAELGRQITERYKDSGSDMVLVGLLRGSFMFMADLCREVQVSHEVDFMTASSYGSGMSTTRDLKILKDLDEDIRGKDVLIVEDIIDSGNTLSKVREILSLREPKSLAICTLLDKPSRREVNVPVEFIGFSIPDEFVVGYGIDYAQRYRHLPYIGKVILLDE	soluble
MERTFSEALKNRRTYYSITDQSPIPDQEIECIINLAVRHVPSAFNSQSTRVVLLLGKSHKKLWNIVKDALRKIVPGEAFAKTEEKIDNSFACGYGTVLFFEDQKVVKGLQEAFPSYQENFPGWSLQTSAMHQLAVWVMLEDVGFGASLQHYNPLIDDEVRRAWNLPAHWHLIAEMPFGVPVNKPGEKEFQPLEERIKVFK	not soluble
MGSDKIHHHHHHMLIFQCHGDRCLSSNLQEHFTDLKKLVNGKSLLMGEKNVQKRLIRLGQILRVFLDKDRVSSIWLSRNFQITPRTIQRDLAALKESGFPIHEIQKGVYRLGKDLIKNLEVFDETELALVITLRNVVGQLGRPFQKAADGLFNSLYDAASSMPVYVRMDESIPLDSSLLNRIVKSIRLKKIAGFYYKSGKPHQVNMEPYRVVHFGGFWYLVGKDTGDSVIKRYALDRISDFKMARTPFRKIPENLDSAIQGSANIWFSTDQNLVVKISVDASSSGYFKRRKVFPTQEITEEREDGSLIVTFRVGRYEAIQDILKSWLPHITILEPAEFRDAFLADMKKWVQRQEQVGS	not soluble
GPLGSMPEVRFQQQLEQLNSMGFINREANLQALIATGGDINAAIERLLGSQLS	soluble
MGSDKIHHHHHHMSRMIRFHKFGAADVLRCEEQAEPSPAADEVQIRVEAVGVSWYDVLWRQNLAPSQARLPAGIGHEMAGVVTAVGEGVDDIAVGDRVASFPATSANDHPVYGDVIVLPRTAITRYPNVLTPIEASVHYTPLLIAYFAYVDLARAKAGQTALVTDASHCAGPAFVQLGRALGLKVFAATKEAAQRDYLLGLGADKVIVTEEQDLLLQIGKYTDGRGVDMVLDGMGGPQMSLLGDVLAPRGSLVLYGLQGGNQTPFPACAAFQKNIQFYVHCIGNFTGKPELGISQDQVALQRALRDINQFTADQLLTPQIIKVYPFEQVVEAHRYMDQCPCGGRVVLDMAQH	not soluble
MGSDKIHHHHHHMNDYKALRTFLLAAEKRNFAQVARELDMTPAAVTRAIAALEAELGVQLFVRTTRQVSLTTDGAIFAAQLQPAVKTIEDARREVMNAHKADEGRLRISAPTWFGKAVLPPILSAFKERYPKMSFEISLSDGLVNIVDDDYDLAIRISSQPSDKFTIWRKIRVVPRILVAAPGSRFVDMQHPNELTPDDCLAYSGDSRRENWVLSDGGSSITISAGRAFSANNGEVLADIAADGAGVAMLPGFHIFEHLRTGRLVHVFKGWAPPDLWLTLYYPPYQALPPRIASFSKFFEEQVPAHMVMLD	not soluble
MQYNPLGKTDLRVSRLCLGCMTFGEPDRGNHAWTLPEESSRPIIKRALEGGINFFDTANSYSDGSSEEIVGRALRDFARREDVVVATKVFHRVGDLPEGLSRAQILRSIDDSLRRLGMDYVDILQIHRWDYNTPIEETLEALNDVVKAGKARYIGASSMHASQFAQALELQKQHGWAQFVSMQDHYNLIYREEEREMLPLCYQEGVAVIPWSPLARGRLTRPWGETTARLVSDEVGKNLYKESDENDAQIAERLTGVSEELGATRAQVALAWLLSKPGIAAPIIGTSREEQLDELLNAVDITLKPEQIAELETPYKPHPVVGFK	soluble
MSLHQFLLFKIKVPTGSMMPTVEIGDQLFVTKIYNPNNIKRGDIVVFNSDELKEPLLKRVIGLPGEHVEIKSDGSVYINGNKLEEDYVKYQGGKTDMSFDVPSGKFLMLGDNRNNSDDARYWSNPYIDGKDIEAKAQLTVYPFDRIGFVKEGHHHHHH	soluble
MGSDKIHHHHHHMERLFESFIKKLAITNTSFVRSLMNEIEWEARLIGIKGARGVGKTTLLLQYIKLNLPMDKTVLYASVDNIWFSEHKLYDLASDFVKRGGKYLFLDEVHKYPNWSQELKNIYDDLPELHVVFTGSSLLEILNAKSDLSRRAIVYEMQGFSFREYLNWNEKLSLPILTLNNILDNHLALSVGIVDKVKVLKHFSDYLKHGYYPYYNELPSLYYSRINEVVNLIVELEIPQLRGVDISYTTKIKQLLYIIAESAPFIPNVSKLSERIGISRNSLLAYLDALHDSCLTMNLQKEGSGISRLQKPDKLFLENPNLMYALSASQIDIGNVRETFFANQLRYCHKINVSKESDFFIDGRYTFEVGGRHKGKQQINGLSDAYIVADDIEYGINNKIPLWLFGFLY	not soluble
MGSDKIHHHHHHMMKKKWYIVLTMSGYEEKVKENIEKKVEATGIKNLVGRIVIPEEVVLDATSPSERLILSPKAKLHVNNGKDVNKGDLIAEEPPIYARRSGVIVDVKNVRKIVVETIDRKYTKTYYIPESAGIEPGLRVGTKVKQGLPLSKNEEYICELDGKIVEIERMKKVVVQTPDGEQDVYYIPLDVFDRDRIKKGKEVKQGEMLAEARKFFAKVSGRVEVVDYSTRKEIRIYKTKRRKLFPGYVFVEMIMNDEAYNFVRSVPYVMGFVSSGGQPVPVKDREMRPILRLAGLEEYEEKKKPVKVELGFKVGDMVKIISGPFEDFAGVIKEIDPERQELKVNVTIFGRETPVVLHVSEVEKIE	not soluble
SKVLLVFDFDNTIIDDNSDTWIIQCAPDKKLPIELQDSYQKGLWTEFMGRVFKYLRDEGVKEEELKRAVTSLPFTSGMIELLSFLRMNKDRFDCIIISDSNSIFIDWVLEAAAFHDVFDTVFTNPASFDSTGRLTVRNCHTHACTRCPKNLCKNTVLGEFIDKQLQKGVRYTRIVYIGDGGNDVCPVTFLKKNDVAMPREGYTLHRTLDKMSQNLEPMASSIVVWSSGMEIISHLQFLIQM	soluble
MAIFRDYSINPTEHDRTIGDRRRHRELVEKAIKDNLADIVSEESIIGESKSKKIKIPIRGLKEYKFLYGNNSSSVGSGTGNEKKGDIIGKEQMGNGSKGKGKGAGNSEGEDIYETEVTIEEVFSYLLEDLNLPNLDKKKYSEIVTDSSKKKAGYQKYGIRPRLAKKRTVIEKIKREQSRKRAIKELGKDDKVERLPFSEEDLRYHRIKEKPKKECNAAIMCVMDCSGSMDSTKKYLARSFFFILSKFIRMKYVNVEIAFISHSTVGREVTETEFFHKVESGGTYISSGLNTAMDIIKERFNPATWNIYGFYVSDGDNFTEDDERAIKSMRKFCEIANMIGYAEILPYSYSGTMKYKFDNYVKDKNFISSTIRNKEDLWPVLKKMLIKELKELEHHHHHH	soluble
MAEASPQPGRYFCHCCSVEIVPRLPDYICPRCESGFIEELPEETRNTENGSAPSTAPTDQNRQPFENVDQHLFTLPQGYSQFAFGIFDDSFEIPTFPPGAQADDGRDPESRREREHQSRHRYGARQPRARLTARRATGRHEGVPTLEGIIQQLVNGIISPAAVPSLGLGPWGVLHSNPMDYAWGANGLDTIITQLLNQFENTGPPPADKEKIQALPTVPVTEEHVGSGLECPVCKEDYALGESVRQLPCNHLFHDSCIVPWLEQHDSCPVCRKSLTGQNTATNPPGLTGVGFSSSSSSSSSSSPSNENATSNS	soluble
MSLPGFEISAQFRFLLSVTALLVREEFGRAPSLGQTQSLLQNGFSSAVVEKVNQNLVSHLNVLDGLQPFMGRPRLHPEGPKDASRRIGPGDQEVKKLSPAMPSEQGEDYWNLLVEFPDSLSISEATLKIVTYHYFSMAGNNKFDGDKTRMGAPGIRFPGKGYAATEHIWIREGSSLLRSLLTSLPTSWVKGEGLPAWADRTAQKSRTGQQQFHALWEATWSSNTVVSYWEDGYLTGVRVGGIPPAWWPDIPNTKEGEKALKLWWDQRNEKDPLYFYLKNKKGEPKAQRIDFGRDGIDLAVEWAAEAKMMDLVEKTYKNVLPVDSYPTVDGDDEGIDKYQLVFFRHQVEGTASSPSIRASEVFLADRSVWAFDLSCDEQLRLRDNAQLVRDVYITLLGVFRRKSAADASREVATGWGAAVLDSLAVSQSDASDAYWRGVTDVYQKYLADLRVGEEITEELYRGIRSAALEAYDEVTAPYLAQYANEIYYVRASLVRSVNSKINTARDEGIGRIKEESNE	not soluble
MGSDKIHHHHHHMNIAIFGAGSTGCYLAGQLCISELQVSLICRPAIKQKIIANNGITLTDYNGFKQTIMPQALITDINQESSIYGKFDVVFVTLKCHQVSSIANQLMAITHDNSSIIFMQNGLGSFDSIKDSLDHYSLLQGITPFNVLQLPNAVFHKGTEGVFTLQANPHTIAIQSALVNHGFGCDIEADFTPMIYGKLLLNLNNALNAVTDLPIKQQLSHYKNRRILAKAMKEWLAVCEAADIQLHQYTKVKPSWLPTILLLPNVLFTVLAKQMLDIDPKARSSMWEDIQAKRKTEVDYINGAVVSIGKKYGIKTPVNQAIVEQIKQLEQRH	not soluble
MAKTYGLIGLYSRIVNKIEDSKKYLSLAIEMNIQSGNHKSLFVNELRLAHTYQWETNYHKSNKLFKKLKEQSESDTEHSNYLDSVYQHYGKNLFDQSEYQLALKYVKKALRIRVEKGNKELIDSTEYAINICNEKIKQIKEMAGDPLEHHHHHH	not soluble
PSMPASPVLTKAGITWLSLQWSKPSGTPSDEGISYILEMEEETSGYGFKPKYDGEDLAYTVKNLRRSTKYKFKVIAYNSEGKSNPSEVVEFTTCPD	soluble
MISLPSGTRIWLVAGVTDMRKSFNGLGEQVQHVLDETPFSGHLFIFRGRRGDTVKILWADADGLCLFTKRLEEGQFIWPAVRDGKVSITRSQLAMLLDKLDWRQPKTFRLNSLTML	not soluble
